Data: paper PMC5222588, “Binding of Myomesin to Obscurin-Like-1 at the Muscle M-Band Provides a Strategy for Isoform-Specific Mechanical Protection” (Structure(London, England:1993), 2017)

T1: obscurin-like-1 third immunoglobulin domain (OL3) (human, UniProt O75147 251-339)
T1 construct: obscurin-like-1, human, third Ig domain (OL3); the printed contact residues F265 to V332 lie in it; Insoluble when expressed alone; obtained only by co-expression with myomesin; Construct limits are in the Supplemental Experimental Procedures; source: E. coli, co-expressed with myomesin from a bicistronic vector, purified as a complex (SEC); not shown: GST, N-terminal, cleaved
T1 sequence: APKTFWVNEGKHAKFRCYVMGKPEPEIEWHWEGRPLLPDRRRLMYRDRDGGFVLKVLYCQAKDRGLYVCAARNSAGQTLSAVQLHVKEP

T2: obscurin third immunoglobulin domain (O3) (human, UniProt Q5VST9 236-331)
T2 construct: obscurin, human, third Ig domain (O3); Insoluble when expressed alone; source: E. coli, co-expressed with myomesin My4LMy5 from a bicistronic vector, purified as a complex (SEC); not shown: GST, N-terminal, cleaved
T2 sequence (looked up): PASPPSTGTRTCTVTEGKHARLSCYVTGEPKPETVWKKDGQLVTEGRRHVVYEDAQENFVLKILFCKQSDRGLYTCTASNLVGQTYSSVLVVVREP

B1: myomesin region encompassing the fourth and fifth Fn-III domains (My4LMy5) (domain or fragment, human)
chain: PAAPLDVKCLEANKDYIIISWKQPAVDGGSPILGYFIDKCEVGTDSWSQCNDTPVKFARFPVTGLIEGRSYIFRVRAVNKMGIGFPSRVSEPVAALDPAEKARLKSRPSAPWTGQIIVTEEEPSEGIVPGPPTDLSVTEATRSYVVLSWKPPGQRGHEGIMYFVEKCEAGTENWQRVNTELPVKSPRFALFDLAEGKSYCFRVRCSNSAGVGEPSEATEVTVVGDKLDIP
notes: myomesin (MYOM1), human, Fn-III domains My4 and My5 with the linker L between them; My4 begins near residue 510 (My4LH is 510-618); My5 is in the crystallised protein but invisible in the electron density; Construct limits are in the Supplemental Experimental Procedures; also called My4L (name of the part visible in the crystal); source: E. coli, co-expressed with GST-OL3 or GST-O3 from a …

Experiments:
[1] = target: OL3:My4LMy5 complex (obscurin-like-1:myomesin heterodimer) (human) (UniProt O75147); test: crystal structure; OL3:My4LMy5 complex at 3.0 mg/mL; 20% PEG8000, 0.1 M Tris-HCl pH 8.5, 0.2 M MgCl2, matrix microseeding; 3.1 Å, space group C2
[2] = target: OL3:My4LMy5 complex (obscurin-like-1:myomesin heterodimer) (human) (UniProt O75147); test: SEC; Superdex S75 10/300; OL3:My4LMy5 complex injected at 3.0 and 8.2 mg/mL (0.082–0.225 mM); dimer of heterodimers to heterodimers
[3] = target: T1, obscurin-like-1 third immunoglobulin …; test: SEC; GST-cleaved complexes co-expressed in E. coli from a bicistronic vector; SEC during purification; settings: both partners purified
[4] = target: T2, obscurin third immunoglobulin domain …; test: as above; settings: both partners purified

Molecule	stoichiometry N [1]	dimer:monomer ratio at 8.2 mg/mL [2]	stoichiometry N [2]	stoichiometry N [3]	stoichiometry N [4]
OL3:My4LMy5 complex (obscurin-like-1:myomesin heterodimer) (from UniProt O75147 251-339; P52179 510-739)	2	30 % dimer	2		
B1				1	1
